Experimental data published in the Immune Epitope Database (IEDB).

Legend:
HLA-A*31:01 = test: IEDB peptide-MHC binding, purified MHC/direct/fluorescence; filed as Kd, often an IC50 or EC50 that approximates it; ≥ and ≤ were set here for values at or beyond the usual limits of such assays
HLA-B*58:01 = test: as above
HLA-B*40:01 = test: as above
HLA-B*48:01 = test: as above
HLA-B*27:05 = test: as above
HLA-A*03:01 [1] = test: as above
HLA-B*08:02 = test: as above
HLA-B*57:01 [2] = test: as above
HLA-A*01:01 [3] = test: as above
HLA-B*44:02 = test: as above; details: source organism: Yellow fever virus
HLA-A*11:01 = test: as above
HLA-B*46:01 [4] = test: as above
HLA-A*02:01 [5] = test: as above
HLA-A*02:16 = test: IEDB peptide-MHC binding, purified MHC/competitive/fluorescence; filed as Kd, often an IC50 or EC50 that approximates it; ≥ and ≤ were set here for values at or beyond the usual limits of such assays; details: source organism: Entamoeba histolytica HM-1:IMSS
HLA-A*02:01 [6] = test: as above; details: source organism: Entamoeba histolytica HM-1:IMSS
HLA-B*83:01 = test: as above
HLA-C*04:01 = test: as above
HLA-B*15:42 = test: as above
HLA-B*45:06 = test: as above
HLA-B*18:01 [7] = test: IEDB peptide-MHC binding, purified MHC/direct/fluorescence; filed as Kd, often an IC50 or EC50 that approximates it; ≥ and ≤ were set here for values at or beyond the usual limits of such assays
HLA-B*15:02 = test: as above; details: source organism: Escherichia coli O157:H7
HLA-B*15:01 [8] = test: as above
HLA-B*51:01 [9] = test: IEDB peptide-MHC binding, purified MHC/competitive/fluorescence; filed as Kd, often an IC50 or EC50 that approximates it; ≥ and ≤ were set here for values at or beyond the usual limits of such assays; details: source organism: Francisella tularensis subsp. tularensis FSC198
HLA-A*03:01 [10] = test: as above; details: source organism: Francisella tularensis subsp. tularensis FSC198
HLA-A*02:12 = test: as above; details: source organism: Francisella tularensis subsp. tularensis FSC198
HLA-B*57:01 [11] = test: as above; details: source organism: Francisella tularensis subsp. tularensis FSC198
HLA-A*02:03 = test: as above; details: source organism: Francisella tularensis subsp. tularensis FSC198
HLA-B*27:03 = test: as above; details: source organism: Francisella tularensis subsp. tularensis FSC198
HLA-B*15:01 [12] = test: as above; details: source organism: Francisella tularensis subsp. tularensis FSC198
HLA-B*18:01 [13] = test: as above; details: source organism: Francisella tularensis subsp. tularensis FSC198
HLA-B*39:01 = test: as above; details: source organism: Francisella tularensis subsp. tularensis FSC198
HLA-A*29:02 = test: as above; details: source organism: Francisella tularensis subsp. tularensis FSC198
HLA-B*46:01 [14] = test: as above; details: source organism: Francisella tularensis subsp. tularensis FSC198
HLA-A*02:19 = test: as above; details: source organism: Francisella tularensis subsp. tularensis FSC198
HLA-A*26:01 [15] = test: as above; details: source organism: Francisella tularensis subsp. tularensis FSC198
HLA-A*01:01 [16] = test: as above; details: source organism: Mycobacterium tuberculosis variant bovis BCG str. Pasteur 1173P2
HLA-B*51:01 [17] = test: IEDB peptide-MHC binding, purified MHC/direct/fluorescence; filed as Kd, often an IC50 or EC50 that approximates it; ≥ and ≤ were set here for values at or beyond the usual limits of such assays; details: source organism: Mycobacterium tuberculosis
HLA-B*15:17 = test: as above; details: source organism: Mycobacterium tuberculosis
HLA-B*15:09 = test: as above; details: source organism: Mycobacterium tuberculosis str. Haarlem
HLA-A*69:01 = test: as above
HLA-A*26:01 [18] = test: as above; details: source organism: Mycobacterium tuberculosis str. Haarlem
HLA-C*05:01 = test: as above; details: source organism: Rattus norvegicus
HLA-B*07:02 = test: as above; details: source organism: Yellow fever virus
[19] = source organism: Yellow fever virus
[20] = source organism: West Nile virus
[21] = source organism: Mycobacterium tuberculosis C
[22] = source organism: Escherichia coli O157:H7
[23] = source organism: Mycobacterium tuberculosis

Measured: Kd

EVRLATMLF
≥ 20 µM: HLA-A*31:01; [19] | HLA-B*58:01; [19] | HLA-B*40:01; [19] | HLA-B*48:01; [19] | HLA-B*27:05; [19] | HLA-A*03:01 [1]; [19] | HLA-B*08:02; [19] | HLA-B*57:01 [2]; [19] | HLA-A*01:01 [3]; [19] | HLA-B*44:02 | HLA-A*11:01; [19] | HLA-B*46:01 [4]; [19] | HLA-A*02:01 [5]; [19]

FHFNPLPNV
0.115 µM: HLA-A*02:01 [6]
0.129 µM: HLA-A*02:16

REWFMDLNL
≥ 5 µM: HLA-B*83:01; [20] | HLA-C*04:01; [20] | HLA-B*15:42; [20] | HLA-B*45:06; [20]
1.36 µM: HLA-B*18:01 [7]; [20]

RLYELIGSV
≥ 5 µM: HLA-B*83:01; [21] | HLA-C*04:01; [21] | HLA-B*15:42; [21] | HLA-B*45:06; [21]

RMFEKSTHH
≥ 20 µM: HLA-B*46:01 [4]; [22]
0.0751 µM: HLA-B*15:01 [8]; [22]
16 µM: HLA-B*15:02

RSFPEWDYI
0.0979 µM: HLA-B*57:01 [11]
≥ 20 µM: HLA-B*51:01 [9] | HLA-A*03:01 [10] | HLA-A*02:12 | HLA-A*02:03 | HLA-B*27:03 | HLA-B*15:01 [12] | HLA-B*18:01 [13] | HLA-B*39:01 | HLA-A*29:02 | HLA-B*46:01 [14] | HLA-A*02:19 | HLA-A*26:01 [15]

SPREECGVF
≥ 20 µM: HLA-A*01:01 [16] | HLA-A*31:01; [23] | HLA-B*51:01 [17] | HLA-B*58:01; [23] | HLA-B*40:01; [23] | HLA-B*48:01; [23] | HLA-B*27:05; [23] | HLA-A*03:01 [1]; [23] | HLA-B*08:02; source organism: Mycobacterium tuberculosis str. Haarlem | HLA-B*15:17 | HLA-B*57:01 [2]; [23] | HLA-B*15:09 | HLA-B*18:01 [7]; [23] | HLA-A*11:01; [23] | HLA-A*69:01; [23] | HLA-B*46:01 [4]; [23] | HLA-A*02:01 [5]; [23] | HLA-A*26:01 [18]
1.2 µM: HLA-B*15:01 [8]; [23]

YFDPANGKF
≥ 28.4 µM: HLA-A*69:01; source organism: Homo sapiens
≥ 22.7 µM: HLA-A*02:01 [5]; source organism: Homo sapiens
≥ 44.1 µM: HLA-A*11:01; source organism: Homo sapiens
0.0015 µM: HLA-C*04:01; source organism: Rattus norvegicus
0.109 µM: HLA-C*05:01
3.6 µM: HLA-A*01:01 [3]; source organism: Homo sapiens

YFHKRDMRL
4.63 µM: HLA-B*08:02; [19]
≥ 20 µM: HLA-B*58:01; [19] | HLA-B*40:01; [19] | HLA-B*48:01; [19] | HLA-B*27:05; [19] | HLA-A*03:01 [1]; [19] | HLA-B*57:01 [2]; [19] | HLA-B*15:01 [8]; [19] | HLA-B*18:01 [7]; [19] | HLA-A*01:01 [3]; [19] | HLA-B*44:02 | HLA-A*11:01; [19] | HLA-B*07:02 | HLA-A*69:01; [19] | HLA-B*46:01 [4]; [19]
